Measurements published in patent US10253076B2, “Peptides and combination of peptides for use in immunotherapy against ovarian cancer and other cancers” (immatics biotechnologies GmbH, priority 2015, dated 2019).

Molecular target: HLA-A*02:01 (Homo sapiens, UniProt P04439, D140Y/D185E/D98H/E176V/E277Q/G131W/G231S/I119V/I121R/I166T/I218V/L300P/L318F/N151K/N90K/P208A/P217A/Q86G/Q94H/R138H/R169H/T345S)
Test: MHC binding assay (UV-ligand exchange, beta2m ELISA, peptide exchange yield)
Conditions: binding of HLA-class I restricted peptides to HLA-A*02:01, ranged by peptide exchange yield (UV-ligand exchange, β2m ELISA)
Method in brief: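 Peptide–HLA-A*02:01 complexes made by UV-mediated exchange of a photocleavable peptide with the test peptide. Exchange products diluted 100-fold on streptavidin-coated plates, 1 h at 37°C, then HRP anti-β2m 1 h at 37°C; TMB read at 450 nm to give exchange yield.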

Row | Substance | Peptide exchange
1 | 147 (SLLEAVSFL; listed as Homo sapiens) [compound 147] | ″+++″ (≥50% = +++)
2 | 392 (ALLHPQGFEV; listed as Homo sapiens) [compound 392] | ″++″ (≥20% = ++)
3 | 279 (ALWGGTQPLL; listed as Homo sapiens) [compound 279] | ″++″ (≥20% = ++)
4 | 234 (ALMEDTGRQML; listed as Homo sapiens) [compound 234] | ″++″ (≥20% = ++)
5 | 587 (VMNDRLYAI; listed as Homo sapiens) [compound 587] | ″+++″ (≥50% = +++)
6 | 480 (ALLEDSCHYL; listed as Homo sapiens) [compound 480] | ″+++″ (≥50% = +++)
7 | 254 (TLLAFIMEL; listed as Homo sapiens) [compound 254] | ″+++″ (≥50% = +++)
8 | 88 (FLLVGDLMAV; listed as Homo sapiens) [compound 88] | ″+++″ (≥50% = +++)
9 | 288 (NLINEINGV; listed as Homo sapiens) [compound 288] | ″+++″ (≥50% = +++)
10 | 335 (YSLSSVVTV; listed as Homo sapiens) [compound 335] | ″+++″ (≥50% = +++)
11 | 132 (LLVEQPPLAGV; listed as Homo sapiens) [compound 132] | ″+++″ (≥50% = +++)
12 | 440 (ALADGVTMQV; listed as Homo sapiens) [compound 440] | ″++″ (≥20% = ++)
13 | 210 (LLLNAVLTV; listed as Homo sapiens) [compound 210] | ″++″ (≥20% = ++)
14 | 452 (ILLEHGADPNL; listed as Homo sapiens) [compound 452] | ″+++″ (≥50% = +++)
15 | 54 (SLLEQGKEPWMV; listed as Homo sapiens) [compound 54] | ″+++″ (≥50% = +++)
16 | 498 (KLWTGGLDNTV; listed as Homo sapiens) [compound 498] | ″+++″ (≥50% = +++)

Row | Substance | Peptide exchange
17 | 495 (FIFSEKPVFV; listed as Homo sapiens) [compound 495] | ″+++″ (≥50% = +++)
18 | 296 (FMEGAIIYV; listed as Homo sapiens) [compound 296] | ″+++″ (≥50% = +++)
19 | 371 (FLQAHLHTA; listed as Homo sapiens) [compound 371] | ″++++″ (≥75% = ++++)
20 | 302 (ALLQEGEVYSA; listed as Homo sapiens) [compound 302] | ″+++″ (≥50% = +++)
21 | 196 (YLYSVEIKL; listed as Homo sapiens) [compound 196] | ″++++″ (≥75% = ++++)
22 | 398 (KLLEEDGTIITL; listed as Homo sapiens) [compound 398] | ″++″ (≥20% = ++)
23 | 161 (ALLEGVNTV; listed as Homo sapiens) [compound 161] | ″+++″ (≥50% = +++)
24 | 223 (ALLENIALYL; listed as Homo sapiens) [compound 223] | ″+++″ (≥50% = +++)
25 | 610 (LLAPTPYIIGV; listed as Homo sapiens) [compound 610] | ″+++″ (≥50% = +++)
26 | 135 (ALSEVDFQL; listed as Homo sapiens) [compound 135] | ″+++″ (≥50% = +++)
27 | 592 (RLLSAAENFL; listed as Homo sapiens) [compound 592] | ″+++″ (≥50% = +++)
28 | 230 (ILVDWLVEV; listed as Homo sapiens) [compound 230] | ″+″ (≥10% = +)
29 | 225 (SLLKVLPAL; listed as Homo sapiens) [compound 225] | ″+++″ (≥50% = +++)
30 | 552 (GLLDLPFRVGV; listed as Homo sapiens) [compound 552] | ″++++″ (≥75% = ++++)
31 | 74 (ALLDPEVLSIFV; listed as Homo sapiens) [compound 74] | ″+++″ (≥50% = +++)
32 | 389 (LLADVTHLL; listed as Homo sapiens) [compound 389] | ″++″ (≥20% = ++)
